For two molecules, binding result and Kd results are on record in article PMC4059526 (2014).

In data set [1] the target is T1, SNF (sans fille) (Drosophila, UniProt P43332 1-216).
T1 sequence: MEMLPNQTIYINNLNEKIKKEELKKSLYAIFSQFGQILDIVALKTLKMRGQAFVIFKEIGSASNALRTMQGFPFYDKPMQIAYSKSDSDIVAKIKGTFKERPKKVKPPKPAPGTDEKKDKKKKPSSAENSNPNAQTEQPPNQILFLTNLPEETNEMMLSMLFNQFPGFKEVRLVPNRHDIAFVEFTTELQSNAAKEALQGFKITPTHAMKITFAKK
Kind of data set: 2-aminopurine fluorescence and CD.

The target in data set [2] is T2, SNF (Drosophila melanogaster, UniProt P43332).
T2 chain: T1 sequence

Broadly, the Kd is the equilibrium constant for the complex coming apart. A lower Kd goes with higher affinity.

B1: 2AP-SLIV (structured_RNA)
RNA: GGCCGUAUUGCAGUACCGCGGCC
modifications: 2-aminopurine replaces A at position 15 (3'-loop adenine)
On to B1, for which, in data set [1], the binding result is “binds”.

B2: U2A' (protein)
chain: MVKLTPELINQSMQYINPCRERELDLRGYKIPQIENLGATLDQFDTIDLSDNDLRKLDNLPHLPRLKCLLLNNNRILRISEGLEEAVPNLGSIILTGNNLQELSDLEPLVGFTKLETICLLINPVSTKPNYREYMAYKFPQLRLLDFRKIKQKDRQAAQEFFRTKQGKDVLKEISRKSKMSAAAAIAAEAGNGKGRGSEGGRLANPQDMQRIREAIKRASSLAEVERLSQILQSGQLPDKFQHEMEAVAQNGAGHNGSGAVAMEY
modifications: SLIV RNA bound
The molecule B2 registered a dissociation constant Kd in data set [2] of 4 nM.
